13 molecules from patent US20110293603A1 (Ablynx, published 2011) can be followed below.

The target of test [1] is T1, extracellular part of recombinant human RAGE fused to human Fc (R&D Systems Cat No 1145-RG) (human, UniProt Q15109 23-342).
T1 construct: extracellular domain; Bought protein; they look like the limits of the IgG1 Fc part; also called rhRG; 1145-RAGE; not shown: human Fc region of human IgG1, at the C-terminus
In words: immunoprecipitation on Talon beads, SDS-PAGE and blot with mouse anti-RAGE and mouse anti-myc. How it is done: In order to test the binding of anti-RAGE clones further an Immunoprecipitation experiment was performed. In short, 100 ul of Talon slurry (50 ul beads) was washed carefully with lysis buffer (RIPA without EDTA) (20 mM tris pH7.4; 150 mM NaCl; 0.5% TritonX100; 0.1% SDS). 10 ug of VHHs was added to the beads in 200 ul of lysis buffer and incubate for 30 min hoh. The beads were washed once with lysis buffer and 1 ug of rhRG was added to the beads (100 ul) and incubated for 1 hour. The beads were spinned down and supernatant was removed. The beads were washed twice. Subsequently the beads were boiled for 5 min in sample buffer and the proteins were separated on a SDS PAGE by gel electrophoresis (FIG. 1).
The high molecular weight part was detected with mouse-anti-RAGE antibody (R&D systems) and the lower part was detected with mouse anti-myc.

For test [2], the target named is T2, extracellular part of recombinant human SR-A1 fused to polyhistidine tag (R&D Systems Cat No 2708-MS) (human, UniProt P21757 77-451).
T2 construct: range 77-451; Bought protein; that entry was therefore not used; also called rhSRA-1
T2 sequence: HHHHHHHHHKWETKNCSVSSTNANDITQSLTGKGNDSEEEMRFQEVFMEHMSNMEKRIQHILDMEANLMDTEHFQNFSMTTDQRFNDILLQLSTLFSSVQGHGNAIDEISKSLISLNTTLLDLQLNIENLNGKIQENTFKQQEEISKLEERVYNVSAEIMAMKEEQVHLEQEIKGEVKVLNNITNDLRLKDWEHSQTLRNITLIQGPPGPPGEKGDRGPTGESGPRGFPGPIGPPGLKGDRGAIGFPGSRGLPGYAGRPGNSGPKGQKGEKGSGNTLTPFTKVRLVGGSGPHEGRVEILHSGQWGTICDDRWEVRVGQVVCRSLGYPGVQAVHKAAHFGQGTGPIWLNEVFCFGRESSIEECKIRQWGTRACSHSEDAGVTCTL
In words: ELISA, rhSRA-1 coated at 2 ug/ml, nanobody 1-1000 nM, detection with anti-Myc 9E10.

The target in test [3] is T3, extracellular part of recombinant human Lox-1 fused to polyhistidine tag (R&D Systems, cat nr. 1798-LX) (human, UniProt P78380 61-273). In words: ELISA, rhLox-1 coated at 2 ug/ml, nanobody 1-1000 nM, detection with anti-Myc 9E10. Background: ELISA stands for enzyme-linked immunosorbent assay.
The target in test [4] is T2, extracellular part of recombinant human …. Put plainly: ELISA, rhSRA-1 coated at 2 ug/ml, nanobody detected with anti-Myc 9E10.
Test [5] concerns the target T3, extracellular part of recombinant human …. In words: ELISA, rhLox-1 coated at 2 ug/ml, nanobody detected with anti-Myc 9E10.

T1 sequence (Q15109 23-342): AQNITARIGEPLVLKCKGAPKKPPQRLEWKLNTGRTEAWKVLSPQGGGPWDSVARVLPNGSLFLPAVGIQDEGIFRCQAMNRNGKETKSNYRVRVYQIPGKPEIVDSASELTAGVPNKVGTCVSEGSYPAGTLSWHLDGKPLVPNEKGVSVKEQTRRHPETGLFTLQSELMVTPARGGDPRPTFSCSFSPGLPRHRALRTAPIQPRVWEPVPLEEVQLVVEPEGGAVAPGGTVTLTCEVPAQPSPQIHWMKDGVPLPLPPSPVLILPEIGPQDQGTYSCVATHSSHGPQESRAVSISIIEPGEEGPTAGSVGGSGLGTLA

B1: Nanobody 99D3 (VHH)
VHH: EVQLVESGGGLVQPGGSLRLSCAASGFTLGNYAIGWFRQAPGKEREGVSCVDRDGGSTYYLDSVTGRFTTSRDDAENTVYLQMNSLIPDDTAVYYCATRLYGCSGYGRDYADWGQGTQVTVSS
notes: Myc-tagged (detected with anti-Myc 9E10)
On to B1, for which the binding result in test [1] is “no binding”.

B2: Nanobody 99C9 (VHH)
VHH: EVQLVESGGGLVQVGGSLRLSCAASGISIRTHAMGWYRQAPGKQRELVATITSVTSGGSLNYADSVKGRFTISRDNAKNTVYLQMNSLKPEDTAVYYCKLLGFDYRGQGTQVTVSS
notes: as for B1
On to B2, for which the binding result in test [2] is on record as “binds”.

B3: Nanobody 105F7 (VHH)
VHH: EVQLVESGGGLVQAGGSLRLSCAASGRTFSNYAMGWFRQAPGKEREFVAAITWSGSSTYYADSVKGRFTISRDNAKNTVYLQMNSLKPEDTAVYYCAAAQRGRYYYLDRNVEYDYWGQGTQVTVSS
notes: as for B1
Turning to B3, in test [3], the binding result is listed as “binds”.

B4: Nanobody 105A8 (VHH)
VHH: EVQLVESGGNLVQAGGSLRLSCAASGFTFDDYVIGWFRQAPGKEREGVSCISSVEGSTYYADSVKGRFTISGDNAKNTVYLQMNSLKPEDTAVYYCAAGTWLDCSGYGSYDMDYWGKGTLVTVSS
notes: as for B1
As to B4, the binding result in test [3] is given as “binds”.

B5: Nanobody 98E9 (VHH)
VHH: EVQLVESGGGLVQPGGSLRLSCAAYGSFFSIGTMGWYRQPPGNQRELVAVTYGLGSTNYAESVKGRFTISRDNAKNTVSLQMNSLKPEDTAVYYCYAEIDTDPRSGEWDYWGQGTQVTVSS
notes: as for B1
With B5, in test [3], the binding result is on record as “binds”.

B6: Nanobody 105B8 (VHH)
VHH: EVQLVESGGGLVQAGGSLRLSCAASGFTFDDYVIGWFRQAPGKEREGVSCISSSEGSTYYAESVKGRFTISSDNAKNTVYLQMNSLKPEDTAVYYCAASTWLDFVHGNEYDYRGQGTQVTVSS
notes: as for B1
As for B6, the binding result in test [3] is given as “binds”.

B7: Nanobody 98F12 (VHH)
VHH: EVQLVESGGGLVQAGGSLRLSCAASGFTFDDYAIGWFRQAPGKEREGVSCVSRDGGSTYYLDSVKGRFTISSDNAKNTVYLQMNSLKPEDAAVYYCAASRYDCSKYLIDYNYRGQGTQVTVSS
notes: as for B1
On to B7, for which the binding result in test [3] is on record as “binds”.

B8: Nanobody 99C8 (VHH)
VHH: EVQLVESGGGLVQPGGSLRLSCAASGSIGRFVAMGWYRQAPGKQRELVATITSITSGGRTNYADSVKGRFTISRDNAKNTVYLQMNSLKPEDTAVYYCNVVPYVNDYWGQGTQVTVSS
notes: Myc-tagged (detected with anti-Myc 9E10); also called 99C8 α SR-A1
As for B8, the binding result in test [2] is listed as “binds”.

B9: Nanobody 49C5 (negative control, irrelevant nanobody against alphaFcgRI) (VHH)
VHH: EVQLVESGGGLVQAGGSLGLSCVASGRTFVSGGMGWFRQAPGKEREFVASIVWIGGRTYYADSVKGRFTISGDNAKSTVTLQMNSLKPEDTATYYCADGDLATGTYDYWGQGTQVTVSS
notes: Negative control; generation published in WO2008/074867; Myc-tagged (detected with 9E10)
On to B9, for which the binding result in test [4] and in test [5] was “no binding (tested: 1-1000 nM)” each time.

B10: Nanobody 98A10 (VHH)
VHH: EVQLVESGGGLVQPGGSLRLSCLPSTSTSSLRTVGWYRQGPGKQRDLVAIMSAGTTRYADSVKGRFTISLDDAKNTVYLQMNSLKPEDTAVYICNGRPVFSNVDYWGQGTQVTVSS
notes: as for B1
B10: the binding result in test [3] is on record as “binds”.

B11: Nanobody 98D8 (VHH)
VHH: EVQLVESGGGLVQPGGSLRLSCAASGSIFTINAMAWYRQAPGKQRELVAHLTNSGRTGYADSVKGRFTISSDNAKNTVYLQMNSLKPEDTAVYYCNRLGLHWSWGQGTQVTVSS
notes: as for B1
In the case of B11, the binding result in test [3] was “binds”.

B12: Nanobody 98B9 (VHH)
VHH: EVQLVESGGGLVQAGGSLRLSCAASIGTFSAYHMGWFRQAPGKERELVAAISWSVSSTYYADSVKGRFTISRDNAKRTVSLQMDSLKPEDTAVYYCAARSGERYDYYKAQYEYWGQGTQVTVSS
notes: as for B1
Regarding B12, in test [3], the binding result is listed as “binds”.

B13: Nanobody 105G11 (VHH)
VHH: EVQLVESGGGLVQAGGSLRLSCAASGRTFSRYAMAWFRHAPGKDREFVAAVSQSGLLTFYADSVKGRFTISRDNAKNTVYLQMNSLKPEDTAVYDCAADSRFPLVVPVAYENWGQGTQVTVSS
notes: as for B1
As for B13, the binding result in test [2] is “binds”.
